Target: penicillin-binding protein 2a (S. aureus (endogenous in strain USA300))
Assay: cross-linking + native gel or EMSA

Substance: penicillin-binding protein 2a (natural protein)
- stoichiometry N: 3
